Source: IntAct's records for PubMed 26592460

B1: "NAD(+) hydrolase SARM1" (Homo sapiens), Q6SZW1 (parent)
chain: MVLTLLLSAYKLCRFFAMSGPRPGAERLAVPGPDGGGGTGPWWAAGGRGPREVSPGAGTEVQDALERALPELQQALSALKQAGGARAVGAGLAEVFQLVEEAWLLPAVGREVAQGLCDAIRLDGGLDLLLRLLQAPELETRVQAARLLEQILVAENRDRVARIGLGVILNLAKEREPVELARSVAGILEHMFKHSEETCQRLVAAGGLDAVLYWCRRTDPALLRHCALALGNCALHGGQAVQRRMVEKRAAEWLFPLAFSKEDELLRLHACLAVAVLATNKEVEREVERSGTLALVEPLVASLDPGRFARCLVDASDTSQGRGPDDLQRLVPLLDSNRLEAQCIGAFYLCAEAAIKSLQGKTKVFSDIGAIQSLKRLVSYSTNGTKSALAKRALRLLGEEVPRPILPSVPSWKEAEVQTWLQQIGFSKYCESFREQQVDGDLLLRLTEEELQTDLGMKSGITRKRFFRELTELKTFANYSTCDRSNLADWLGSLDPRFRQYTYGLVSCGLDRSLLHRVSEQQLLEDCGIHLGVHRARILTAAREMLHSPLPCTGGKPSGDTPDVFISYRRNSGSQLASLLKVHLQLHGFSVFIDVEKLEAGKFEDKLIQSVMGARNFVLVLSPGALDKCMQDHDCKDWVHKEIVTALSCGKNIVPIIDGFEWPEPQVLPEDMQAVLTFNGIKWSHEYQEATIEKIIRFLQGRSSRDSSAGSDTSLEGAAPMGPT

Variants of: B1
Conditions: with myd88_human MYD88, Q99836
Sequence of myd88_human MYD88, Q99836 (Q99836 whole entry): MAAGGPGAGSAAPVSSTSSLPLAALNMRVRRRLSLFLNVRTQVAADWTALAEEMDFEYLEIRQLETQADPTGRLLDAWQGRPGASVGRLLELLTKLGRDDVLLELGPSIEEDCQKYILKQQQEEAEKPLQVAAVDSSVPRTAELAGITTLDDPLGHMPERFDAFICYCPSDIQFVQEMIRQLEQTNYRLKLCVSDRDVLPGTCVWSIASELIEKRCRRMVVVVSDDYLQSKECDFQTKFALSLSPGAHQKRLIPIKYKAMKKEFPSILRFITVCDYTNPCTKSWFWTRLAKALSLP

Row | effect of a mutation on the interaction | Variant
1 | disrupting interaction strength | G601A

Variants of: B1
Conditions: with tcam1_human TICAM1, Q8IUC6
Sequence of tcam1_human TICAM1, Q8IUC6 (Q8IUC6 whole entry): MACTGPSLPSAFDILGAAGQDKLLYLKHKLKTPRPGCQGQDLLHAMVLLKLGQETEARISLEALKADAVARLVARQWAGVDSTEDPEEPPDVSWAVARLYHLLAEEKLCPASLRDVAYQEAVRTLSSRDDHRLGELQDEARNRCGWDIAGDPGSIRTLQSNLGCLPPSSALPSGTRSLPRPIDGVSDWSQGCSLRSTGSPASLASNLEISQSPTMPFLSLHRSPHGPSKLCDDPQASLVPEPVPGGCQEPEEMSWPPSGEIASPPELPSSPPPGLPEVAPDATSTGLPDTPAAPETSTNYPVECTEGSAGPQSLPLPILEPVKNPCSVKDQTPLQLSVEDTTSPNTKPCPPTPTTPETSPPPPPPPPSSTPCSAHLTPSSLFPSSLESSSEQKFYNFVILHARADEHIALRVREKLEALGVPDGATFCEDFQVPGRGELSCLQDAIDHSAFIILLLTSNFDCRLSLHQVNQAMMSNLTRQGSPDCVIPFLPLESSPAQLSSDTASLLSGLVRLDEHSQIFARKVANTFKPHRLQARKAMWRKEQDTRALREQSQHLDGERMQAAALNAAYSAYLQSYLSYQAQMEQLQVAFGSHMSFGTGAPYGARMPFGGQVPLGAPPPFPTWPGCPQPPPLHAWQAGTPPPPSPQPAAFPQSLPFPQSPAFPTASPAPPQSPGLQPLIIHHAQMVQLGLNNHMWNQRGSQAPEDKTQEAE

Row | effect of a mutation on the interaction | Variant
2 | disrupting interaction strength | G601A

Variants of: B1
Conditions: with tirap_human TIRAP

Row | effect of a mutation on the interaction | Variant
3 | disrupting interaction strength | G601A

Variants of: B1
Conditions: with tcam2_human TICAM2, Q86XR7
Sequence of tcam2_human TICAM2, Q86XR7 (Q86XR7 whole entry): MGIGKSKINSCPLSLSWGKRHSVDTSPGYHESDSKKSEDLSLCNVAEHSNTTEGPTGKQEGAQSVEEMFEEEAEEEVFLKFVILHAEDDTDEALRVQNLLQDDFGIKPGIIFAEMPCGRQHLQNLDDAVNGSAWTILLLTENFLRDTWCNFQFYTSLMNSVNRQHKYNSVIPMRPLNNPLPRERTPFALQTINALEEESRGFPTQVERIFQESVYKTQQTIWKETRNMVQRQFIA

Row | effect of a mutation on the interaction | Variant
4 | disrupting interaction strength | G601A
